Results published in US20250361298A1.

Legend:
[1] = biological target: T1, Human LY6G6D ectodomain fused to mouse IgG2A Fc (monovalent display, knob-in-hole) (human); assay: SPR, Biacore 8K+, LY6G6D-mouse Fc captured by anti-mouse antibody on CM5, antibody as analyte 50-0.7813 nM, 25 C
T1 sequence (O95868 whole entry, looked up): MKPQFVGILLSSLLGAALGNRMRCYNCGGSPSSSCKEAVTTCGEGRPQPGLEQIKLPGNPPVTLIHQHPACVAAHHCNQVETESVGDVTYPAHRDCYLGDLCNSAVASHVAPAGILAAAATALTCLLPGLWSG

[2] = biological target: Cynomolgus LY6G6D ectodomain fused to mouse IgG2A Fc (monovalent display, knob-in-hole) (cynomolgus); assay: SPR, Biacore 8K+, cyno LY6G6D-mouse Fc captured by anti-mouse antibody on CM5, antibody as analyte 50-0.7813 nM, 25 C
Sequence of Cynomolgus LY6G6D ectodomain fused to mouse IgG2A Fc (monovalent display, knob-in-hole) (cynomolgus) (O95868 other isoform, or with tags, fused parts or gaps limits assumed): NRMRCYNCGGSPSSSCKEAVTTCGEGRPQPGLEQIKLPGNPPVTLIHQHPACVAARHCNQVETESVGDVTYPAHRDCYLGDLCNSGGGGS

B1: 20A12.QNTv12 (antibody, from another filing, V domains shown)
VH: EVQLLESGGGLVQPGGSLRLSCAASGFDFVNNAMIWVRQAPGKGLEWVSALSFADNTAYYATWASGRFTISRDSSKTTVYLQMNSLRAEDTAVYYCMRGDLWGPGTLVTVSS
VL: DIQMTQSPSTLSASVGDRVTITCQASESITRYLNWYQQKPGKAPKLLIYDASKLPSGVPSRFSGSGSGTEFTLTISSLQPDDFATYYCQSTSFRGRSYQNTFGGGTKVEIKR
A Kd [1] of 3.67 nM, a kon [1] of 109000 M⁻¹ s⁻¹ and a Kd [2] of 3.4 nM were found for B1 in this work. The koff [2] was 0.00038 s⁻¹ and the kon [2] was 112000 M⁻¹ s⁻¹.
